For one data set, the target named is SCO7468 (Streptomyces coelicolor, UniProt Q8CJJ9). The data set can be described thus: methanol denaturation and reverse-phase HPLC of co-purified flavin. Format: binding. To be noted: tightly bound.
Substrate in data set [1]: N[C@@H](Cc1c[nH]c2ccccc12)C(=O)O
The data set is described as follows: purified protein. Format: biochemical, Streptomyces coelicolor. To be noted: DMAPP 1 mM fixed, 2 mM MgCl2, 100 mM Tris-HCl pH 8.0, 30 °C.

Substrate in data set [2]: CC(C)=CCOP(=O)(O)OP(=O)(O)O
The data set is described as follows: purified protein. Format: biochemical, Streptomyces coelicolor. Particulars: L-tryptophan 1 mM fixed, 2 mM MgCl2, 100 mM Tris-HCl pH 8.0, 30 °C.

Substrate in data set [3]: N[C@@H](Cc1c[nH]c2ccccc12)C(=O)O
The data set is described as follows: LC-MS/MS quantification of aldoxime product (IAOx). Particulars: 1 mM NADPH, 20 μM FAD, 100 mM Tris-HCl pH 8.0, 30 °C. Format: biochemical, Streptomyces coelicolor.

Substrate in data set [4]: CC(C)=CCc1ccc2[nH]cc(C[C@H](N)C(=O)O)c2c1
The data set can be described thus: LC-MS/MS quantification of aldoxime product (5-DMAIAOx). Format: biochemical, Streptomyces coelicolor. To be noted: 1 mM NADPH, 20 μM FAD, 100 mM Tris-HCl pH 8.0, 30 °C.

In the case of `Cc1cc2nc3c(=O)[nH]c(=O)nc-3n(C[C@H](O)[C@H](O)[C@H](O)COP(=O)(O)OP(=O)(O)OC[C@H]3O[C@@H](n4cnc5c(N)ncnc54)[C@H](O)[C@@H]3O)c2cc1C` [FAD], the “methanol denaturation and reverse-phase HPLC of co-purified flavin” value at SCO7468 is given as “FAD existed in the recombinant SCO7468 protein as a tightly bound form”.

B1: SCO7467 (Streptomyces coelicolor A3(2)) (protein)
chain: MRAASTGADPQDASTLGSFTGGQLRRLGSVAGLSRADVETYAQVLTDALGPVAQRPLSLAPPTRTFLSDDHTPVEFSLSFRPGAAPAMRVLVEPGCGATSLADNGRAGLEAVRTMARRWHFTTDALDELLDLFLPPAPQGPLALWCALELRPGGVPGVKVYLNPAVGGEERSAATVREALRRLGHHQAFDSLPQGSGYPFLALDLGNWTEPRAKVYLRHDNLTAGRAARLSRTDSGLVPTAVEGFFRTAAGPGSDAGGLDGRPAQSCHSFTDPGAERPSGFTLYIPVRDYVRHDGEALARASTVLHHHGMDASVLHRALAALTERRPEDGVGLIAYLALAGQRDQPPRVTAYLSSEAYTVRPPVVETVRQPLSVG
notes: N-terminal His8 tag (pHIS8), expressed in E. coli BL21(DE3), Ni-NTA purified, 40 kDa, monomer
The Km is the concentration of substrate that gives half-maximal velocity. Usually kcat stands for the maximal rate divided by the concentration of active sites. In the case of B1, in “purified protein [1]”, the Km worked out at 80 ± 6 µM and the kcat amounted to 0.40 ± 0.1 s⁻¹. In “purified protein [2]”, the Michaelis-Menten constant (Km) amounted to 50 ± 2 µM and the kcat amounted to 0.40 ± 0.1 s⁻¹.

B2: SCO7468 (Streptomyces coelicolor A3(2)) (protein)
chain: MRVCVIGAGLSGLAMGHALKERGISFVCLEKAPDVGGIWRQPGAGERGPGYQSLHLNTARQLTGYADFPMPSDYPLYPRHDQVAAYLRSFAEWAGLLDHVELRTEVLSVRQDSDGSWTVVSRDADGAQSARRFEQVVVASGHHTDPALPDPLPAGADSFAGTILHSLDYRDGGDFAGRRVVVVGLGASAVDIAADLSRHAERTLLSVRRGLHIVPKQVFGMSLDEIAEAPWWNEMPFAERRRWVEQALLVARGRLSDYGLPEPDHPILSSATTLSDEILSRIRHGAVTPKPAIASFESDRVVFTDGSSEAADTVVYCTGFHMTFPFLPPGCPVAADGAVELYRRIVPADRPGLYFVGLVRPAGALTRLVEAQAQWVARLVDGAAALPGTEEMREEISTYLAGIVERYGRTRGASIQVDVSPYLAEFREPLPV
Turning to B2, in data set [3], the Km entry was “(3.3 ± 0.7) ×10^3 μM” and the kcat entry is “(5.2 ± 0.4) ×10^−3 s^−1”. Further, in data set [4], the Michaelis constant (Km) was 0.57 ± 0.1 µM and the kcat entry is recorded as “(8.2 ± 0.7) ×10^−3 s^−1”.

The values are drawn from publication PMC3617294, “Novel Tryptophan Metabolism by a Potential Gene Cluster That Is Widely Distributed among Actinomycetes” (The Journal of Biological Chemistry, 2013).
